Measured values from PMC3344845, “Structure of Bradavidin – C-Terminal Residues Act as Intrinsic Ligands” (PLoS ONE, 2012).

What was measured:
[1] = target: core-bradavidin (Bradyrhizobium japonicum); assay: ITC; core-bradavidin in the cell, ligand (Brad-tag or Brad-tag–EGFP) in the syringe, 15°C, 50 mM sodium phosphate pH 7.0, 100 mM NaCl; n is the stoichiometry per subunit
[2] = target: core-bradavidin (Bradyrhizobium japonicum); assay: ITC; core-bradavidin in the cell, Brad-tag–EGFP in the syringe, 25°C, 50 mM sodium phosphate pH 7.0, 100 mM NaCl; n is the stoichiometry per subunit
[3] = target: Brad-tag–EGFP–His-tag fusion protein (Bradyrhizobium japonicum); assay: BLI; Octet RED384; Brad-tag–EGFP–His-tag (0.03 mg/ml, 700 s) held on anti-Penta-HIS biosensors; higher concentrations: core-bradavidin 0.5, wt bradavidin 1.2, avidin 1.8, streptavidin 1.7, rhizavidin 2.0 mg/ml for 200 s; controls with biotin (3.2 mM for core-bradavidin, 13 mM for avidin) and plain sensors; 30°C

Row | Kd [1] [µM] | dH [1] [kcal mol^–1] | stoichiometry N [1] | Kd [2] [µM] | dH [2] [kcal mol^–1] | stoichiometry N [2] | shift (BLI response) [3] [nm] | Substance
1 | 2.8 | -0.5 | 0.68 | 3.1 | -1 | 0.68 |  | Brad-tag–EGFP fusion protein (without His-tag)
2 |  |  |  |  |  |  | 1.2 | core-bradavidin (domain or fragment)
